Experimental data: patent publication CN1649900A (dated 2005)
Residue numbers refer to the chain shown, from its start. Where no end group is shown, it is not given here. [ ]: non-standard residue; d: D form. sY = N[C@@H](Cc1ccc(OS(=O)(=O)O)cc1)C(=O)O

B1: S-S Y1 dimer (disulfide-bridged dimer of Y1 scFv with a cysteine added at the carboxy terminus) (other)
chain: EVQLVESGGGVVRPGGSLRLSCAASGFTFDDYGMSWVRQAPGKGLEWVSGINWNGGSTGYADSVKGRFTISRDNAKNSLYLQMNSLRAEDTAVYYCARMRAPVIWGQGTLVTVSRGGGGSGGGGSGGGGSSELTQDPAVSVALGQTVRITCQGDSLRSYYASWYQQKPGQAPVLVIYGKNNRPSGIPDRFSGSSSGNTASLTITGAQAEDEADYYCNSRDSSGNHVVFGGGTKLTVLGAAAEQKLISEEDLNGAAC
B2: Y1-IgG (full-size IgG1 lambda antibody built from the Y1 Fv) (antibody)
chain 1: EVQLVESGGGVVRPGGSLRLSCAASGFTFDDYGMSWVRQAPGKGLEWVSGINWNGGSTGYADSVKGRFTISRDNAKNSLYLQMNSLRAEDTAVYYCARMRAPVIWGQGTLVTVSR
chain 2: SELTQDPAVSVALGQTVRITCQGDSLRSYYASWYQQKPGQAPVLVIYGKNNRPSGIPDRFSGSSSGNTASLTITGAQAEDEADYYCNSRDSSGNHVVFGGGTKLTVLG
B3: CONY1, Y1 scFv monomer in which the myc tag is deleted or replaced by Lys-Ala-Lys (KAK) (scFv)
scFv: EVQLVESGGGVVRPGGSLRLSCAASGFTFDDYGMSWVRQAPGKGLEWVSGINWNGGSTGYADSVKGRFTISRDNAKNSLYLQMNSLRAEDTAVYYCARMRAPVIWGQGTLVTVSRGGGGSGGGGSGGGGSSELTQDPAVSVALGQTVRITCQGDSLRSYYASWYQQKPGQAPVLVIYGKNNRPSGIPDRFSGSSSGNTASLTITGAQAEDEADYYCNSRDSSGNHVVFGGGTKLTVLG
notes: also called CONY1 scFv; Y1-kak
B4: Y1 scFv (human single-chain Fv antibody fragment Y1) (scFv)
scFv: EVQLVESGGGVVRPGGSLRLSCAASGFTFDDYGMSWVRQAPGKGLEWVSGINWNGGSTGYADSVKGRFTISRDNAKNSLYLQMNSLRAEDTAVYYCARMRAPVIWGQGTLVTVSRGGGGSGGGGSGGGGSSELTQDPAVSVALGQTVRITCQGDSLRSYYASWYQQKPGQAPVLVIYGKNNRPSGIPDRFSGSSSGNTASLTITGAQAEDEADYYCNSRDSSGNHVVFGGGTKLTVLGAAAEQKLISEEDLNGAA
notes: Clone from the Nissim I phage display library; Used biotinylated in Western blots; detected with rabbit anti-scFv or anti-VL in FACS and ELISA; also called scFv Y1; scFv-Y1
B5: Y17 scFv (scFv)
scFv: B4 scFv with M99L, R100T, A101H, V103Y, I104F
notes: Second scFv clone selected on platelets

Assays:
[1] = target: T1, PSGL-1 (P-selectin glycoprotein ligand-1, CD162) on KG-1 cells or in KG-1 membrane preparations (human, UniProt Q14242 42-412, sulfated tyrosines in the N-terminal region); test: radioreceptor competition on KG-1 cells, tracer 125I-Y1-IgG 2 ng/tube
T1 construct: whole, on cells; entries on KG-1 cells, lysates and membrane fractions are written against this molecule; also called KG-1细胞上Y1配体
T1 sequence (looked up): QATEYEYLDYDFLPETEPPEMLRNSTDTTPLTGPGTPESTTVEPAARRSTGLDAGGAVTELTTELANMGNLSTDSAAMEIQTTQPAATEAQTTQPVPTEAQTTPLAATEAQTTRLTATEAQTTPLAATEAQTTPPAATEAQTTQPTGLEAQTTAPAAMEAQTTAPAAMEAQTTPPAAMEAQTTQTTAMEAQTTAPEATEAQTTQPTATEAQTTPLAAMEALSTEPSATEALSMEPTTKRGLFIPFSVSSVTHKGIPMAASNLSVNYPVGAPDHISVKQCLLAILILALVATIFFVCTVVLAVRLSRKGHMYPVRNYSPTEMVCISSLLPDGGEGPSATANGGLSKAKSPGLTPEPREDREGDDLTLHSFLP

[2] = target: T1, PSGL-1 (P-selectin glycoprotein …); test: second radioreceptor competition on KG-1 cells, labelled CONY1
[3] = target: T1, PSGL-1 (P-selectin glycoprotein …); test: radioreceptor assay, ELISA and FACS
[4] = target: T2, human lumican from plasma (human, UniProt P51884 19-338); test: binding to human plasma proteins
T2 construct: also called H P-配体2
T2 sequence (looked up): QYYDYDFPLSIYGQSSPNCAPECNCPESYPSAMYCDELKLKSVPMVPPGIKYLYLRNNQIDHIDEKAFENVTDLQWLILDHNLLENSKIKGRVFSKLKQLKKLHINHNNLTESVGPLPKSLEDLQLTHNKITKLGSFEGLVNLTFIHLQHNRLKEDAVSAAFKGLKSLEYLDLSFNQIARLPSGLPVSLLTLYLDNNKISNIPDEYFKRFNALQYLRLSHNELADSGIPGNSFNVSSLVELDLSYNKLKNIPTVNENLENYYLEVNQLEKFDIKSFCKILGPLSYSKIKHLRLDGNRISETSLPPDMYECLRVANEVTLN

[5] = target: T1, PSGL-1 (P-selectin glycoprotein …); test: Western blot
[6] = target: T1, PSGL-1 (P-selectin glycoprotein …); test: FACS on KG-1 cells
[7] = target: B4; test: competition ELISA, Y1 scFv on glycocalicin, peptide 1, 10, 100 μM

**Q.** What does the source list for B1?
**A.** Kd [1]: 40 nM; fold higher avidity than CONY1 [1]: 30 fold; fold lower avidity than the whole Y1 antibody [1]: 2 fold; Kd [2]: 50 nM; fold higher affinity than CONY1 [2]: 20 fold; fold binding over Y1 scFv monomer [3]: ≥ 20 fold

**Q.** How did the Kd [1] turn out when B2 was run?
**A.** ~20 nM

**Q.** With B3 as the binder, how does the Kd [2] read?
**A.** ~1000 nM

**Q.** Does B4 bind [4]?
**A.** binds

**Q.** Does B4 bind [5]?
**A.** binds

**Q.** Does B5 bind [6]?
**A.** binds

**Q.** Does VRPEHPAETEYESLYPEDDL [F-YY, non-sulfated peptide from the fibrinogen γ prime chain] bind [7]?
**A.** no binding (tested: 100μM)

**Q.** Does VRPEHPAETE[sY]ESL[sY]PEDDL [F-Y*Y*, sulfated peptide from the fibrinogen γ prime chain] bind [7]?
**A.** no binding (tested: 100μM)
